{
  "source": "paper PMC9027224",
  "about": "(Diagnostics, 2022)",
  "key": {"[1]": {"set-up": "species or system human", "conditions": "in vivo, iv", "source_text": "Two peripheral intravenous catheters were placed, one for tracer injection and one in the contralateral arm for withdrawal of blood samples and administration of i.v. contrast agent. Electrocardiogram and vital signs as well as safety blood samples were monitored before and following [^68Ga]Ga-NODAGA-E[c(RGDyK)]2 injection. […] Furthermore, urine was collected for pharmacokinetic analysis and dosimetry in a subset of patients (Figure 1). The activity concentration of the urine and plasma was counted on Cobra II TM Gamma Counter (Packard, CT, USA). Blood and urine samples were analyzed on a Dionex UltiMate 3000 column-switching high-performance liquid chromatography (HPLC) system with a Posi-RAM Module 4 (ThermoFisher Scientific, Waltham, MA, USA). The full blood samples were centrifuged (3500 rpm, 4 min) and the supernatant plasma was collected and filtered through a […] syringe filter prior to the HPLC analysis. The HPLC analysis consisted of an extraction step and an analytical step, as previously described. During the extraction step, the plasma samples were passed through a shim-pack XR-ODS (30 × 4.6 mm, 2.2 μm). The valves were switched, and the sample was then analyzed on an Onyx monolithic column (C18, 50 × 4.6 mm). […]"}, "[2]": {"set-up": "species or system human", "conditions": "in vivo", "description": "Dosimetry was based on the decay-uncorrected image sets from the 3 time points (10 patients) supplemented with sampled urine data (7 patients). For each patient, organ, and time point, tissue activity concentration (kBq/mL) was determined in VOIs defined on CT. Activity (per patient, organ and time) was estimated by multiplying concentration values by organ masses of the OLINDA adult phantom, normalized per injected MBq and scaled for patient weight. Time integrated activity coefficients (TIAC, unit h) for each patient and organ was determined by numerical integration and analytical extrapolation to infinity assuming only physical decay. The resulting organ TIACs were averaged over patients. All data were entered into OLINDA/EXM 2.0 software (Vanderbilt University, TN, USA and HERMES Medical Solutions, Stockholm, Sweden).\nUrine was collected immediately after each scan in pre-weighted plastic bottles. The cumulated decay-corrected activity (MBq) of the excreted urine was plotted over time for all 7 subjects and data fitted to a one-phase exponential association. […] A detailed description of the dosimetry is available in Supplementary Material (Section S2).\ntestine, spleen, stomach contents, testes, thyroid, and upper large intestine. For each pa-\ntient, organ, and time-point, tissue activity concentration (kBq/mL) was calculated as the\naverage of the mean values from 3 VOIs. Total activity (per patient, organ and time) was\nestimated by multiplying these average values by organ masses of the OLINDA male\nadult phantom. Activity values were normalized to 1MBq by dividing with injected\nactivity and scaled with the ratio of actual patient weight to the weight of the standard\nmodel (73 kg). As a surrogate for red marrow activity, VOIs were drawn encompassing\nlarge portions of the L3–L5 vertebrae. Time integrated activity coefficients (TIAC, for-\nmerly known as residence time; unit h) for each patient and organ was determined by nu-\nmerical integration up to the third (last) data point and analytical extrapolation to infinity\nassuming only physical decay. Piecewise linearity was assumed from time zero up to the\nsecond data point and a mono-exponential was used between the second and third data\npoints. The resulting organ TIACs were averaged over patients. All data were entered into\nOLINDA/EXM 2.0 software (Vanderbilt Universi ty, and HERMES Medical Solutions).\nUrine was collected immediately after each scan in pre-weighted plastic bottles and\nfor each individual voiding the weight (volume) was measured and a 500 μL sample was\ndrawn for activity measurement in a calibrated gamma well counter (Cobra II TM,\nGamma Counting Systems; PACKARD, Meriden, CT, USA).The cumulated decay cor-\nrected activity (in MBq) of the excreted urine, normalized to 1 MBq of injection, was plot-\nted over time (in Excel) for all 7 subjects and data fitted to a one phase exponential asso-\nciation (exponential growing towards a limit). The resulting limit and half-life were used\nas input to the bladder voiding model of OLINDA, yielding the TIAC for bladder con-\ntents. In concordance with the actual setup a bladder voiding interval of 1 hour was se-\nThe value for “remainder tissue” was calculated as the total area (in h) for 1 MBq\nminus the sum of the organ-specific values (except bladder) minus the value passed to\nurine (based on the fitted model parameters). The fraction of the latter that is attributed to\nthe bladder depends on the voiding interval.\nThe output from OLINDA consists of absorbed doses for organs and effective dose\nwith weight factors according to ICRP 103 [3]. […]\n3. The 2007 Recommendations of the International Commission on Radiological Protection. ICRP publication 103. Ann ICRP"}, "[3]": {"conditions": "human, in vivo", "source_text": "Two peripheral intravenous catheters were placed, one for tracer injection and one in the contralateral arm for withdrawal of blood samples and administration of i.v. contrast agent. Electrocardiogram and vital signs as well as safety blood samples were monitored before and following [^68Ga]Ga-NODAGA-E[c(RGDyK)]2 injection. […] Furthermore, urine was collected for pharmacokinetic analysis and dosimetry in a subset of patients (Figure 1)."}, "integrin subtype αvβ3": {"target": "integrin subtype αvβ3", "conditions": "in vitro; unlabelled NODAGA-E[c(RGDyK)]2; ref Bentsen et al., unpublished data; read-out: affinity (KD); cited from earlier work", "source_text": "A large number of PET tracers with the RGD motif have been developed and tested preclinically. However, only a few have reached testing in clinical trials, and none have yet been employed for routine clinical use. The clinical translation of first-generation integrin-targeting PET tracers with ^18F, e.g., ^18F-Galacto-RGD, was hampered by complex radiochemistry. Thus, several approaches to optimize the production and tracer stability as well as tumor-binding properties have been investigated. Addressing the need for assessing integrin αvβ3, our group evaluated a number of PET tracers uti ..."}, "[4]": {"conditions": "in vivo; cited from earlier work", "source_text": "(§1) A secondary objective of our study was to assess [^68Ga]Ga-NODAGA-E[c(RGDyK)]2 uptake in tumors."}, "[5]": {"tested_on": "head and neck squamous cell carcinoma", "conditions": "10 patients with head and neck squamous cell carcinoma; cited from earlier work", "source_text": "as §1"}},
  "note": "Like-named read-outs stand apart in the source and are kept apart here.",
  "data": [
    {"molecule": "N=C(N)NCCC[C@@H]1NC(=O)[C@H](CCCCNC(=O)CC[C@H](NC(=O)CCC(C(=O)O)N2CCN(CC(=O)O)CCN(CC(=O)O)CC2)C(=O)NCCCC[C@@H]2NC(=O)[C@@H](Cc3ccc(O)cc3)NC(=O)[C@H](CC(=O)O)NC(=O)CNC(=O)[C@H](CCCNC(=N)N)NC2=O)NC(=O)[C@@H](Cc2ccc(O)cc2)NC(=O)[C@H](CC(=O)O)NC(=O)CNC1=O", "note": "(stereo partly drawn) [[^68Ga]Ga-NODAGA-E[c(RGDyK)]2, metal not drawn]", "values": [
      {"measurement": "plasma half-life", "setting": "[1]; human", "result": 8.6, "unit": "min"},
      {"measurement": "plasma metabolites by reversed-phase HPLC", "setting": "[1]", "result": "two unknown polar metabolites"},
      {"measurement": "Mean Absorbed Dose, Adrenals", "setting": "[2]", "result": 0.0245, "unit": "mGy/MBq"},
      {"measurement": "Mean Absorbed Dose, Brain", "setting": "[2]", "result": 0.00252, "unit": "mGy/MBq"},
      {"measurement": "Mean Absorbed Dose, Breasts", "setting": "[2]", "result": 0.0105, "unit": "mGy/MBq"},
      {"measurement": "Mean Absorbed Dose, Esophagus", "setting": "[2]", "result": 0.0112, "unit": "mGy/MBq"},
      {"measurement": "Mean Absorbed Dose, Eyes", "setting": "[2]", "result": 0.00929, "unit": "mGy/MBq"},
      {"measurement": "Mean Absorbed Dose, Gallbladder Wall", "setting": "[2]", "result": 0.0143, "unit": "mGy/MBq"},
      {"measurement": "Mean Absorbed Dose, Heart Wall", "setting": "[2]", "result": 0.0146, "unit": "mGy/MBq"},
      {"measurement": "Mean Absorbed Dose, Kidneys", "setting": "[2]", "result": 0.0627, "unit": "mGy/MBq"},
      {"measurement": "Mean Absorbed Dose, Left Colon", "setting": "[2]", "result": 0.0136, "unit": "mGy/MBq"},
      {"measurement": "Mean Absorbed Dose, Liver", "setting": "[2]", "result": 0.0279, "unit": "mGy/MBq"},
      {"measurement": "Mean Absorbed Dose, Lungs", "setting": "[2]", "result": 0.00792, "unit": "mGy/MBq"},
      {"measurement": "Mean Absorbed Dose, Osteogenic Cells", "setting": "[2]", "result": 0.0136, "unit": "mGy/MBq"},
      {"measurement": "Mean Absorbed Dose, Ovaries", "setting": "[2]", "result": 0.0154, "unit": "mGy/MBq"},
      {"measurement": "Mean Absorbed Dose, Pancreas", "setting": "[2]", "result": 0.0144, "unit": "mGy/MBq"},
      {"measurement": "Mean Absorbed Dose, Prostate", "setting": "[2]", "result": 0.0133, "unit": "mGy/MBq"},
      {"measurement": "Mean Absorbed Dose, Rectum", "setting": "[2]", "result": 0.0151, "unit": "mGy/MBq"},
      {"measurement": "Mean Absorbed Dose, Red Marrow", "setting": "[2]", "result": 0.015, "unit": "mGy/MBq"},
      {"measurement": "Mean Absorbed Dose, Right Colon", "setting": "[2]", "result": 0.0131, "unit": "mGy/MBq"},
      {"measurement": "Mean Absorbed Dose, Salivary Glands", "setting": "[2]", "result": 0.00996, "unit": "mGy/MBq"},
      {"measurement": "Mean Absorbed Dose, Small Intestine", "setting": "[2]", "result": 0.0603, "unit": "mGy/MBq"},
      {"measurement": "Mean Absorbed Dose, Spleen", "setting": "[2]", "result": 0.0504, "unit": "mGy/MBq"},
      {"measurement": "Mean Absorbed Dose, Stomach Wall", "setting": "[2]", "result": 0.0263, "unit": "mGy/MBq"},
      {"measurement": "Mean Absorbed Dose, Testes", "setting": "[2]", "result": 0.0192, "unit": "mGy/MBq"},
      {"measurement": "Mean Absorbed Dose, Thymus", "setting": "[2]", "result": 0.011, "unit": "mGy/MBq"},
      {"measurement": "Mean Absorbed Dose, Thyroid", "setting": "[2]", "result": 0.0663, "unit": "mGy/MBq"},
      {"measurement": "Mean Absorbed Dose, Total Body", "setting": "[2]", "result": 0.0133, "unit": "mGy/MBq"},
      {"measurement": "Mean Absorbed Dose, Urinary Bladder Wall", "setting": "[2]", "result": 0.126, "unit": "mGy/MBq"},
      {"measurement": "Mean Absorbed Dose, Uterus", "setting": "[2]", "result": 0.018, "unit": "mGy/MBq"},
      {"measurement": "effective dose", "setting": "[2]", "result": 0.0218, "unit": "mSv/MBq"},
      {"measurement": "effective dose (radiation exposure) at injected activity of 200 MBq", "setting": "[2]", "result": 4.4, "unit": "mSv"},
      {"measurement": "kidney radiation", "setting": "[2]", "result": 0.063, "unit": "mGy/MBq"},
      {"measurement": "radiation dose, kidneys", "setting": "[2]", "result": 0.063, "unit": "mSv/MBq"},
      {"measurement": "radiation dose, thyroid", "setting": "[2]", "result": 0.066, "unit": "mSv/MBq"},
      {"measurement": "radiation dose, urinary bladder wall", "setting": "[2]", "result": 0.126, "unit": "mSv/MBq"},
      {"measurement": "acute or long-term effects on blood parameters or organ function", "setting": "[3]", "result": "No acute or long-term effects"},
      {"measurement": "changes in vital signs, laboratory studies or electrocardiograms", "setting": "[3]", "result": "No significant changes"}
    ]},
    {"molecule": "NODAGA-E[c(RGDyK)]2 (head to tail) [unlabelled precursor of the tracer, obtained as acetate from ABX GmbH]", "values": [
      {"measurement": "Kd", "setting": "integrin subtype αvβ3", "result": 0.075, "unit": "nM"}
    ]},
    {"molecule": "[^68Ga]Ga-NODAGA-RGDyK [monomeric RGD PET tracer]", "values": [
      {"measurement": "effective dose", "setting": "[4]", "result": 19.8, "unit": "µSv/MBq"},
      {"measurement": "kidney radiation", "setting": "[4]", "result": 0.046, "unit": "mGy/MBq"},
      {"measurement": "mean SUVmax in the primary tumor", "setting": "[5]", "result": "3.9 ± 1.1"}
    ]}
  ]
}
